Key:
Experiment in all cases: cell-based or functional assay
[1] = target: HIV-1 Env of pseudovirus CNE8 (HIV-1)
[2] = target: HIV-1 envelope of pseudovirus Du156.12 (HIV-1)
[3] = target: HIV-1 envelope of pseudovirus Q259.d2.17 (HIV-1)
[4] = target: HIV-1 envelope of pseudovirus 235-47 (HIV-1)
[5] = target: HIV-1 Env of pseudovirus Q769.d22 (HIV-1)
[6] = target: HIV-1 Env of pseudovirus T255-34 (HIV-1)
[7] = target: HIV-1 envelope spike of pseudovirus QH0692.42 (HIV-1)
[8] = target: HIV-1 Env of pseudovirus 6535.3 (HIV-1)
[9] = target: HIV-1 envelope of pseudovirus X1254_c3 (HIV-1)
[10] = target: HIV-1 Env of pseudovirus C4118.c09 (HIV-1)
[11] = target: HIV-1 envelope of pseudovirus HIV-16845-2.22 (HIV-1)
[12] = target: HIV-1 Env of pseudovirus X2131_C1_85 (HIV-1)
[13] = target: HIV-1 envelope of pseudovirus CNE30 (HIV-1)
[14] = target: HIV-1 Env of pseudovirus CNE20 (HIV-1)
[15] = target: HIV-1 envelope of pseudovirus Ce1172_H1 (HIV-1)
[16] = target: HIV-1 envelope spike of pseudovirus PVO.4 (HIV-1)
[17] = target: Murine leukemia virus (MuLV) envelope on pseudovirus (Murine leukemia virus)
[18] = target: HIV-1 envelope of pseudovirus Q769.d22 (HIV-1)
[19] = target: HIV-1 Env of pseudovirus YU-2 (HIV-1) (UniProt P35961)
[20] = target: HIV-1 envelope of pseudovirus 3415.v1.c1 (HIV-1)
[21] = target: HIV-1 Env of pseudovirus CNE30 (HIV-1)
[22] = target: HIV-1 Env of pseudovirus 235-47 (HIV-1)
[23] = target: HIV-1 Env of pseudovirus 1054_07_TC4_1499 (HIV-1)
[24] = target: HIV-1 Env of pseudovirus 231966.c02 (HIV-1)
[25] = target: HIV-1 Env of pseudovirus ZM197M.PB7 (HIV-1)
[26] = target: HIV-1 envelope of pseudovirus AC10.0.29 (HIV-1)
[27] = target: HIV-1 envelope of pseudovirus CAP210.2.00.E8 (HIV-1)
[28] = target: HIV-1 Env of pseudovirus BJOX015000.11.5 (HIV-1)
[29] = target: HIV-1 Env of pseudovirus BF1266.431a (HIV-1)
[30] = target: HIV-1 envelope of pseudovirus C1080.c03 (HIV-1)
[31] = target: HIV-1 Env of pseudovirus 231965.c01 (HIV-1)
[32] = target: HIV-1 Env of pseudovirus Ce2010_F5 (HIV-1)
[33] = target: HIV-1 Env of pseudovirus 9004SS_A3_4 (HIV-1)
[34] = target: HIV-1 Env of pseudovirus ZM247v1(Rev-) (HIV-1)
[35] = target: HIV-1 envelope of pseudovirus Ce2010_F5 (HIV-1)
[36] = target: HIV-1 envelope of pseudovirus BJOX009000.02.4 (HIV-1)
[37] = target: HIV-1 envelope of pseudovirus C2101.c01 (HIV-1)
[38] = target: HIV-1 Env of pseudovirus C1080.c03 (HIV-1)
[39] = target: HIV-1 envelope of pseudovirus 928-28 (HIV-1)
[40] = target: HIV-1 Env of pseudovirus HIV-001428-2.42 (HIV-1)
[41] = target: HIV-1 Env of pseudovirus CNE19 (HIV-1)
[42] = target: HIV-1 envelope of pseudovirus Q842.d12 (HIV-1)
[43] = target: HIV-1 envelope of pseudovirus ZM135M.PL10a (HIV-1)
[44] = target: HIV-1 Env of pseudovirus Ce703010054_2A2 (HIV-1)
[45] = target: HIV-1 Env of pseudovirus 191821_E6_1 (HIV-1)
[46] = target: HIV-1 envelope of pseudovirus BJOX025000.01.1 (HIV-1)
[47] = target: HIV-1 envelope of pseudovirus SC422661.8 (HIV-1)
[48] = target: HIV-1 Env of pseudovirus HIV-16845-2.22 (HIV-1)
[49] = target: HIV-1 envelope of pseudovirus Ce2060_G9 (HIV-1)
[50] = target: HIV-1 Env of pseudovirus 263-8 (HIV-1)

Sequence of 10-1074 (antibody) (VH): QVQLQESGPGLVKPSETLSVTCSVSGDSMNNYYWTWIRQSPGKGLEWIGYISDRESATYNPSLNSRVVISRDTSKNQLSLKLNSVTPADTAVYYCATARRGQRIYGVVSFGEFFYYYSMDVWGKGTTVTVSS
Sequence of 10-1074 (antibody) (V domain): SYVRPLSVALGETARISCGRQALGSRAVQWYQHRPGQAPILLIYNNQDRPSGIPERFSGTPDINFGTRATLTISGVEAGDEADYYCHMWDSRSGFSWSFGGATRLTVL
Sequence of HIV-1 Env of pseudovirus YU-2 (HIV-1) (P35961 32-843 limits assumed): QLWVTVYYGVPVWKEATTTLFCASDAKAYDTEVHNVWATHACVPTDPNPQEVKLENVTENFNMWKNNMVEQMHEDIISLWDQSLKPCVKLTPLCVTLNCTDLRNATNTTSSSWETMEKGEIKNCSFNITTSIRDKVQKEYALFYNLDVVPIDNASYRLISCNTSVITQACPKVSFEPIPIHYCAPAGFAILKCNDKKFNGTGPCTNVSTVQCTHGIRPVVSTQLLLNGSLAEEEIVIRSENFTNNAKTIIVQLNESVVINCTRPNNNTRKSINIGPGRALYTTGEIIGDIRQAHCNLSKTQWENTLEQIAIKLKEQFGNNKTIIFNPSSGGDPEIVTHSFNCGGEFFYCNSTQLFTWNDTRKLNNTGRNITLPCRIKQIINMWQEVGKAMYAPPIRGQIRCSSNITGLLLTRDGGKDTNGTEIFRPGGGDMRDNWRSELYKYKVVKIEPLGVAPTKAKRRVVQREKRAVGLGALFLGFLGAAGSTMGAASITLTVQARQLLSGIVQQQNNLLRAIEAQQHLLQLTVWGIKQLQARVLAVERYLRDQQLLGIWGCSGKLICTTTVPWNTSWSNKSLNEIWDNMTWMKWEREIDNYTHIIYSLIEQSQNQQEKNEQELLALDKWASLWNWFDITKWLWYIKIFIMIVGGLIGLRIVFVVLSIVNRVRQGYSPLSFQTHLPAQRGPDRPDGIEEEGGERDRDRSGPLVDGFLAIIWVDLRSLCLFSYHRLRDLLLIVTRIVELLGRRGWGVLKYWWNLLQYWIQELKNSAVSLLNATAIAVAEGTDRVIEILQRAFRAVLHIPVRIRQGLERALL

10-1074 (antibody)
IC80 (TZM-bl neutralization) [1]: > 50 µg/mL
IC50 (TZM-bl neutralization) [2]: 0.015 µg/mL
IC50 (TZM-bl neutralization) [3]: > 50 µg/mL
IC50 (TZM-bl neutralization) [4]: 0.05 µg/mL
IC80 (TZM-bl neutralization) [5]: > 50 µg/mL
IC80 (TZM-bl neutralization) [6]: > 50 µg/mL
IC50 (TZM-bl neutralization assay) [7]: 0.259 µg/mL
IC80 (TZM-bl neutralization assay) [7]: 0.861 µg/mL
IC80 (TZM-bl neutralization) [8]: 0.026 µg/mL
IC50 (TZM-bl neutralization) [9]: 0.089 µg/mL
IC80 (TZM-bl neutralization) [10]: > 50 µg/mL
IC50 (TZM-bl neutralization) [11]: 1.17 µg/mL
IC80 (TZM-bl neutralization) [12]: 0.064 µg/mL
IC50 (TZM-bl neutralization) [13]: 0.363 µg/mL
IC80 (TZM-bl neutralization) [14]: 0.005 µg/mL
IC50 (TZM-bl neutralization) [15]: 0.047 µg/mL
IC50 (TZM-bl neutralization assay) [16]: 0.178 µg/mL
IC80 (TZM-bl neutralization assay) [16]: 0.766 µg/mL
IC50 (TZM-bl neutralization assay) [17]: > 40 µg/mL
IC80 (TZM-bl neutralization assay) [17]: > 40 µg/mL
IC50 (TZM-bl neutralization) [18]: > 50 µg/mL
IC80 (TZM-bl neutralization) [19]: 0.398 µg/mL
IC50 (TZM-bl neutralization) [20]: > 50 µg/mL
IC80 (TZM-bl neutralization) [21]: 1.2 µg/mL
IC80 (TZM-bl neutralization) [22]: 0.163 µg/mL
IC80 (TZM-bl neutralization) [23]: 0.563 µg/mL
IC80 (TZM-bl neutralization) [24]: > 50 µg/mL
IC80 (TZM-bl neutralization) [25]: > 50 µg/mL
IC50 (TZM-bl neutralization) [26]: 0.022 µg/mL
IC50 (TZM-bl neutralization) [27]: > 50 µg/mL
IC80 (TZM-bl neutralization) [28]: > 50 µg/mL
IC80 (TZM-bl neutralization) [29]: > 50 µg/mL
IC50 (TZM-bl neutralization) [30]: > 50 µg/mL
IC80 (TZM-bl neutralization) [31]: > 50 µg/mL
IC80 (TZM-bl neutralization) [32]: > 50 µg/mL
IC80 (TZM-bl neutralization) [33]: 0.03 µg/mL
IC80 (TZM-bl neutralization) [34]: 0.186 µg/mL
IC50 (TZM-bl neutralization) [35]: > 50 µg/mL
IC50 (TZM-bl neutralization) [36]: > 50 µg/mL
IC50 (TZM-bl neutralization) [37]: > 50 µg/mL
IC80 (TZM-bl neutralization) [38]: > 50 µg/mL
IC50 (TZM-bl neutralization) [39]: 0.847 µg/mL
IC80 (TZM-bl neutralization) [40]: 0.261 µg/mL
IC80 (TZM-bl neutralization) [41]: > 50 µg/mL
IC50 (TZM-bl neutralization) [42]: > 50 µg/mL
IC50 (TZM-bl neutralization) [43]: 0.069 µg/mL
IC80 (TZM-bl neutralization) [44]: > 50 µg/mL
IC80 (TZM-bl neutralization) [45]: > 50 µg/mL
IC50 (TZM-bl neutralization) [46]: > 50 µg/mL
IC50 (TZM-bl neutralization) [47]: 0.091 µg/mL
IC80 (TZM-bl neutralization) [48]: 5.83 µg/mL
IC50 (TZM-bl neutralization) [49]: > 50 µg/mL
IC80 (TZM-bl neutralization) [50]: 6.53 µg/mL
